From paper PMC4122979 (Bioscience Reports, 2014)

Target: Human CaM (calmodulin) (human, UniProt P0DP23 1-149)
Experiment: cell-based or functional assay

Row | Binder | inhibition of eNOS L-citrulline formation (100 nM eNOS, 0.5 uM CaM) by 10 uM peptide
1 | TRKKTFKEVANAVKISASLM [Unmodified CBD peptide, T495 (heNOS CaM-binding domain, residues 491-510)] | 87%
2 | TRKKDFKEVANAVKISASLM [Phosphomimetic CBD peptide, D495 (heNOS residues 491-510)] | 20%
3 | TRKKAFKEVANAVKISASLM [Phospho-null CBD peptide, A495 (heNOS residues 491-510)] | 70%
